{"source": "paper PMC6304933", "molecular_target": "Thermosynechococcus elongatus BP-1 Fed2 (Thermosynechococcus elongatus BP-1)", "assay": "SDS/PAGE", "data": [{"substance": "Thermosynechococcus elongatus BP-1 Fed2 (natural protein)", "values": [{"measurement": "stoichiometry N", "value": 2}]}]}
